# Experimental data from the supplement of paper PMC12764529.
# ± gives the half width of the 95% confidence interval.
# Test: folding stability dG unfold from trypsin proteolysis; higher = more stable
# Experimental: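 Folding stability of de novo designed mini-proteins (<80 aa, no Cys; designed by TrROS, TrMRF, ProteinMPNN and the joint model) was measured by cDNA display proteolysis with trypsin and chymotrypsin. Each protease was used at 11 concentrations in a threefold dilution series plus a no-protease condition. K50 was inferred by Bayesian fitting of sequencing counts, and dG unfold was derived against a sequence-predicted unfolded-state K50 (Tsuboyama et al. method). Sequences shown include variable-length N-terminal GS-type padding (SAGGSAGG...) inside a display construct carrying a PA tag. Rows were kept only if the AF2 dimer inter-PAE was >15, to exclude likely homo-oligomers.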
row,Sequence,folding stability dG unfold [kcal/mol]
1,SAGGSAGGSAGGMITKVTVTYLPGGEVSLTITDENGTPSEKTLSLAELKKYPDIPLELDPSAGGSAGGSAGG [r7_238_JUSTAS],0.174 ± 0.05
2,SAGGSAGGSDWFPIRVEDIEYERDPADGRDSVTIEAQFPGKPHTFTIPPNAPIKPGDELWIPFSAGGSAGGS [r20_49_TrROS],-1.9 ± 0.8
3,SAGGSAGGSAGGAMREVPIVLPFSPEMSEEEARALIEEELKRKGDPIAKLVIDKKSPALLSAGGSAGGSAGG [r7_703_JUSTAS],-0.687 ± 0.45
4,SAGGSAGGSKIKILFDPNMTLEEAIELAEKLTKEFDAEVELEIIPKPKPKPLPVIDPENPKLLSAGGSAGGS [r12_159_TrMRF],0.252 ± 0.028
5,SAGGSAGGSAGGLADLLKGKTFTVTFPEGDKPYPATFEPTADDTVRVGFPDGDSYPVPAAYQSAGGSAGGSA [r18_169_TrMRF],-0.466 ± 0.2
6,EMTVTVKIEIEKTPDSIKIKITVEVNGKKIEEVEITYDKKTKKIYIKVKVKSKEDLDELKKLLEKLGFKVES [r1_455_TrROS_Hall],3.81 ± 0.31
7,SAGGSAGGSTIREILDALPPGREIDVERHPNNGHYEISIQNPNGPNPTFQIDDPVTKEIAEWISAGGSAGGS [r12_174_TrROS],0.65 ± 0.031
8,SAGGSAGGSAGGKPIYILAEHPSNGKVVLLPVDSPEKAIEFAKALADVPDFKIAHVDAFGSAGGSAGGSAGG [r11_951_TrMRF],0.341 ± 0.052
9,LKITLPGGAEVTEIDDIKVSSDGYIELNVRVRNPDNDVEVPVPVYIPVPPVPPVPVKVSFIPGTGKLVVDDS [r1_411_TrMRF],0.0956 ± 0.11
10,SAGMYIEGSLSSPEEAPVVAVPFPGPEKLLLAPLAVGLEEIREALEEEGFEPVEIRVAETEPGVPLDLSAGG [r19_386_TrMRF],0.211 ± 0.024
11,SAGGSAGGSAGGSERHTAVLVDTGFRISPAPEEGGLRLEAGASLTIREVPEDALKEVLGSAGGSAGGSAGGS [r4_274_TrMRF],-0.398 ± 0.26
12,SAGGSAGGSALVRIEFPNGREIEIPNNMPYEQAKDVAVELAEEHGKNGRPFKVKIEEIKPPGSAGGSAGGSA [r18_213_TrROS],0.439 ± 0.096
13,SAGGSAGGSAGPITITDIPSEEEAAALIAARPGVEVERKPVTLSEEERWEVTLTLPGEAASAGGSAGGSAGG [r17_542_JUSTAS],0.157 ± 0.058
14,SAGGNPDWIPIQVPFEDPGDQDAMKKLVEELADIFLDEGIKPIEVEHTNPGHYSVWIPFDGKSIRIHSAGGS [r16_703_TrROS],-0.37 ± 0.13
15,SAGGGMTLTQVSSHQSPNGGVPTTLVTETLFYPETGTAVVLTKVRLPETGEVTTVASTVLPIPPPLLSAGGS [r8_384_JUSTAS],-0.0612 ± 0.066
16,SAGGSAMDAEQIEEKIKEAMQDHGHEVEVEVQRDPNNTVVIQVESGPGMDKDRIQEALQEKFGVKISAGGSA [r15_807_TrROS],-0.793 ± 0.1
17,SAGGSAGGSAGGKEIPLDEVKDIQPSNDKWYVVFPGKPQRFPPDDIPIPPGKPIRIYPLSAGGSAGGSAGGS [r10_665_TrROS],0.338 ± 0.058
18,SAGGSAPPASAPGVVEEVEAEVPVDVPEVARLTGRPPRPGERYRVRVVRRVYPDGRVETDVYIEPGSAGGSA [r15_91_TrMRF],0.328 ± 0.064
19,SAGGSAGGSAGITIEFPEEENNFRVENPNDGKKHEIPGTPDEIKEYALDKFPGRPIKIHPSAGGSAGGSAGG [r11_614_TrROS],0.11 ± 0.079
20,SAGGMPIKPKVELEPLEDAYLVRVRFEAPDRPIEIRRAFASFPDAVREAEEIARFLEEAEIPSPEGGSAGGS [r16_24_TrMRF],-0.682 ± 0.66
21,SAGGSAGGSNIVSARPLGDLVLIEIEPGGKPLRAVVRPSELPPNPPIPPGLSYRVEPGSVSDYSAGGSAGGS [r12_1005_TrMRF],-1.09 ± 0.28
22,SAGGSAGGSIKVPKNSKVTVLYEKGGKKIEVSGIVDPKTGKILETDSLENLPDAKIVEIKVEDSAGGSAGGS [r12_6_TrMRF],-0.742 ± 0.15
23,SAGGSAGGSAGKVKVKVESNPDGTLIIAEEFEDFVVIVELKVDDDGIHFHPHPVVLSKELSAGGSAGGSAGG [r17_72_TrMRF],0.0484 ± 0.1
24,SAGGSAGGSAGGSMAIPVYLKIENKVLTSLDELKEAVESGKPIEIERIEAFDLSPDEEVSAGGSAGGSAGGS [r4_479_TrMRF],-0.74 ± 0.35

row,Sequence,folding stability dG unfold [kcal/mol]
1,SVPPFLNLPEAAKALAKAKPGPPVPRLTFPVTTDDPEEALEEILKQYPHLHPDKIKRVEVGDGYLTVEFGSA [r9_723_TrMRF],-0.936 ± 0.34
2,SAGGKVREIDFPMDPGELRDAIDELKREGYMVMIEMPNGQERTIDPNLEDLPPGMPFEIYVMPPKDGSAGGS [r16_31_TrROS],-0.212 ± 0.33
3,SAGGSYRIEIEDIDPKPQWRPNPNGEWEPRPTLTIEVKIERNPDEMPEKEKQKIEEQAERIAKKFFSAGGSA [r2_40_TrROS],-0.436 ± 0.4
4,SAGGSAGGSAGGSMPLRKVTVSRPDSTLEFEFPESVPEEEVKEKLKKEYPNAEVKVEPESAGGSAGGSAGGS [r4_155_JUSTAS],-0.633 ± 0.25
5,SAGGSSLDEKIKQAVEEGKVPTEIEFTDPSNDLKTRYLVTVKSVLPGSYEVEVEEEIFDPDNPVLVSAGGSA [r2_420_JUSTAS],-1.07 ± 0.27
6,SAGGSITLEIELPNGAKITVTIEYDEETGTVTIEAEITLPNGTVIRIKATINKDGTITIEKIEVFKPSAGGS [r16_213_TrROS_Hall],4.82 ± 0.69
7,SAGMKKEKPKETVTITLKNGKKIEIVKTDDSIKIFITDKNGKKRELTVKGLSLEEILKKLEELGFEVEPSAG [r5_613_TrROS_Hall],0.776 ± 0.082
8,SAAPTSSGPISLNKPEILTITSVEADPETGTITTPTRVELTEEELDPFNPEIPTFKKKYLDVTLTTPTSSAG [r14_888_JUSTAS],-0.643 ± 0.45
9,SAGGSAGGSAGGRIRLPNMPPGHDMEIKSIKVPEPGPVKLTIEPPGSDKKQERYMPPDDISAGGSAGGSAGG [r7_342_TrROS],0.0711 ± 0.23
10,SAGGSAGGSAGNVEEIADQLKPNGYKISTVEPTDDQVEVEIYNPESKEPRKFRIPPNQPISAGGSAGGSAGG [r11_428_TrROS],-0.414 ± 0.24
11,SAGGSAGGSMKTALLDDGKTIPLPEEELPPDAGVEEVAKKIPPEAKKLTVKEPDGSTKTVPLASAGGSAGGS [r20_161_JUSTAS],-0.0521 ± 0.2
12,SAGGMTEIEPDSEEKAEAEIEKVVEEEAEKALKSEKKNVTIKVDVKVVDPVTGKSKTYPVEKLVKLPSAGGS [r8_163_JUSTAS],-1.4 ± 0.83
13,SAGGSNPGDPEQVPKVKIKITYPDNGKEFTIPVEELRNGPIEEAVSEIANEARERYPGHPLRIEPVSAGGSA [r2_392_TrROS],-0.836 ± 0.41
14,SAGGSASPEELAERVAKEIEEKYPVEVTEIRVEEVSEDEVVLSMTYRKPLPGGETEVENRTVTLPQSAGGSA [r15_276_JUSTAS],0.162 ± 0.26
15,SAGGSAGGSPPFTITFIDENGKGVKKINLPFDPKKPSVLPLSEEEIKALKEELGPEAKSITLSSAGGSAGGS [r12_514_JUSTAS],-0.658 ± 0.16
16,SAGGMTPEELKKVTIEKTVKDPSGNEYLEKSEVKEVEKKDEKYILKIPYTIKDKNGNTISNGTKTIPLSAGG [r13_172_JUSTAS],-0.446 ± 0.5
17,SAGGSAGGSKITITIAPGMSEEEAKKLAEELAKEFNIEIEVKIEPLKPVEKKFYVDKETNEIKSAGGSAGGS [r12_159_TrROS_Hall],-0.357 ± 0.19
18,SAGGSAETYPVTVVVPLPPGGRELPVEELEDLVRETLANVPDLPDVKVEVTLLEPEGRALVRVEFPSAGGSA [r15_1029_TrMRF],0.0434 ± 0.12
19,SAGGPKEIIKEIAEKYGITEIMPWDDMKNMPPENPNKIHIWPDPEGHYMVMIRAPNGNKKSIEFPIESAGGS [r16_686_TrROS],-1.02 ± 0.3
20,SAGGSAGGEYKVYPVKGDLKEFFDEAYKENPGGVRIIDPDTDEVLDFPPDLSLDEFPGTFVVLGSAGGSAGG [r6_857_TrMRF],-0.238 ± 0.13
21,SAGGGSHTFKDNGKKIKITVYPPPNGNMRVQLQIYDPDDGKPKPKAIAPFRGGSVEDAIKDLLDAGISAGGS [r16_378_TrROS],-0.0278 ± 0.19
22,SMPISAEELAELFPGVVEIKPEPDSTVITAKDPNGTNPVFTLSPAGTVTVTTYTPGSGTTTTTTIPTALLSA [r9_427_JUSTAS],0.681 ± 0.025
23,SAGGSAGGSAGGDVEVKEFTTTDPETGEEIIRVTETIPGNEKIVTTYTKDGKPISTKKILSAGGSAGGSAGG [r7_454_JUSTAS],-0.0907 ± 0.13
